Target: the molecule itself
Experiment: crystal structure

B1: Miner1 (C92S), soluble region of human Miner1 (amino acids 57-135) (domain or fragment)
chain: GSHMRPFLPKKKQQKDSLINLKIQKENPKVVNEINIEDLSLTKAAYCRCWRSKTFPACDGSHNKHNELTGDNVGPLILKKKEV
For B1, the “stoichiometry N” value was 2.

Source: PMC2739586 (Journal of molecular biology, 2009)
